Measured values from PMC8024706 (iScience, 2021).

Target: the molecule itself
Assay: high-speed atomic force microscopy

B1: PDI I289A (enzyme)
chain: not shown
  stoichiometry N: 2
